This is an account of results in article PMC6197184, “Cyclophilin J limits inflammation through the blockage of ubiquitin chain sensing” (Nature Communications, 2018).

The target of assay [1] is T1, His-CYPJ (recombinant) (human, UniProt Q9H2H8 1-161).
T1 chain: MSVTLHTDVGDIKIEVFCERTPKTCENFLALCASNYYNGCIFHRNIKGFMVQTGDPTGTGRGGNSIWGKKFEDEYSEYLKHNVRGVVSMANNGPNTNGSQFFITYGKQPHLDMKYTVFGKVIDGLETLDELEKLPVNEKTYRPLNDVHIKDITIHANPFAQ
The experiment in a line: ITC. (In general: Isothermal titration calorimetry measures the heat released or taken up as one component is titrated into another.)

Assay [2] deals with T2, His-CYPJ (recombinant) (human, UniProt Q9H2H8 1-161).
T2 construct: cyclophilin J (CYPJ, PPIL3), human; also called recombinant His-CYPJ
T2 sequence (looked up): T1 chain
As to the kind of experiment: ITC; synthetic NZF peptides and His-CYPJ; MicroCal iTC200, standard procedure. The conditions noted are these: both partners purified.

B1: TAB2-NZF peptide (peptide)
peptide: QWNCTACTFLNHPALIRCEQCEMP
notes: peptide from the NZF domain of TAB2; limits counted from C670 and C673 named in the introduction; source: synthetic peptide (DgPeptides)
For the molecule B1, the Ka with His-CYPJ (recombinant) [1] came out at 283 M⁻¹. The binding result with His-CYPJ (recombinant) [2] was “binds”.

B2: TAB3-NZF peptide (peptide)
peptide: WNCDSCTFLNHPALNRCEQCEMP
notes: peptide from the NZF domain of TAB3; limits counted from C706 named in the introduction; source: synthetic peptide (DgPeptides)
As to B2, in the assay with His-CYPJ (recombinant) [1], the Ka came out at 1030 M⁻¹. The binding result with His-CYPJ (recombinant) [2] is reported as “binds”.
